B1: CPEB3 Ribozyme (parent)
chain: UAACAGGGGGCCACAGCAGAAGCGUUCACGUCGCAGCCCCUGUCAGAUUCUGGUGAAUCUGCGAAUUCUGCUGUAUAUCUC

Variants of: B1
Experiment: self-cleavage, relative activity (ratio to wild type); higher = more cleavage; in vitro, sequencing
How it was run: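 Barcoded CPEB3 ribozyme mutants, produced by rounds of error-prone PCR, self-cleaved while being transcribed with T7 RNA polymerase for 5 hours at 37°C and during a subsequent 15 min DNase I step before EDTA was added. Sequencing of template-switched cDNA on Illumina gave cleaved and total reads, and DNA sequencing assigned barcodes to variants. Each variant's relative activity is its cleaved/total read fraction divided by the unmutated ribozyme's fraction, averaged across three batches. A variant needed a minimum of 5 reads.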

Point of comparison: G33C A77G, self-cleavage 0.11. Against it:
- A35G G46A — higher, 0.96
- A35G G46C — higher, 1.12
- A35G U48A — higher, 1.14
- A35G U48C — higher, 1.21
- C34G A75G — higher, 0.15
- C34U G36U — higher, 0.14
- A35G A47G — higher, 1.26
- A35G A47U — higher, 1.16
- A35G A47C — higher, 1.3
- A35G G42A — higher, 0.5
- A35G G42C — higher, 0.16
- A35C U48A — higher, 0.45
- A35C U48C — higher, 0.47
- A35G G36U — higher, 0.5
- A35G G36A — higher, 0.92
- A35G G36C — higher, 0.29
- C34G C68A — lower, 0.1
- C34G C68U — higher, 0.15
- C34U U69C — higher, 0.35
- C34U U69A — higher, 0.13
- G33C — higher, 0.23
- G33U — higher, 0.24
- C34U U66C — higher, 0.35
- G33U U49C — higher, 0.15
- G33U U49G — higher, 0.2
- C34A U78C — higher, 0.32
- C34A U78A — higher, 0.16
- A35C U76G — higher, 0.77
- A35C U76C — higher, 0.96
- C34A U66C — higher, 0.46
- C34U U78C — higher, 0.3
- G33C U72A — lower, 0.09
- G33C U72C — higher, 0.19
- A35G A56U — higher, 1.24
- A35G A56C — higher, 1.27
- A35G A56G — higher, 1.27
- A35C A75U — higher, 0.97
- A35C A75G — higher, 0.87
- G33C G53C — lower, 0.07
- C34G U78C — higher, 0.22
- C34G U78A — higher, 0.26
- C34A U54A — higher, 0.17
- G33C C62U — higher, 0.14
- A35G A57U — higher, 1.22
- A35G A57G — higher, 1.27
- A35G G52A — higher, 1.36
- A35G G52U — higher, 1.36
- A35G G52C — higher, 1.27
- G33U A45G — higher, 0.13
- G33U A45C — higher, 0.12
- A35G U41G — higher, 0.33
- A35G U41C — higher, 1.23
- A35G U41A — higher, 0.44
- G33U U72G — higher, 0.28
- G33U U72C — higher, 0.19
- C34U U74A — higher, 0.52
- C34U U74C — higher, 0.84
- C34U U54A — higher, 0.24
- C34U U54C — higher, 0.44
- C34A U69C — lower, 0.07
- C34A U69A — lower, 0.07
- C34G G42A — higher, 0.62
- A35C U67C — higher, 0.23
- A35C U67G — higher, 0.39
- A35C U67A — higher, 0.23
- A35C A64U — higher, 0.25
- A35C A64G — higher, 0.3
- C34U A47G — higher, 0.43
- C34U A47U — higher, 0.17
- C34U A47C — higher, 0.41
- G33U G61C — higher, 0.13
- C34U A75G — higher, 0.18
- C34G A56G — higher, 0.18
- C34U C71A — higher, 0.13
- A35G C40U — higher, 1.23
- A35G C40A — higher, 0.55
- A35G C40G — higher, 0.66
- C34U U48G — higher, 0.3
- C34U U48C — higher, 0.47
- G33U U76C — higher, 0.32
- C34G U49C — lower, 0.07
- C34G U49A — higher, 0.24
- A35C U74C — higher, 1.17
- C34U U51G — higher, 0.54
- C34U U51A — higher, 0.34
- C34U U58C — higher, 0.16
- A35C U43A — higher, 1.06
- A35C U43C — higher, 0.35
- G33U U48C — lower, 0.08
- A35G G55C — higher, 1.46
- A35G G55A — higher, 1.23
- C34U U49C — higher, 0.16
- G33U U67C — higher, 0.16
- C34G U66C — higher, 0.23
- C34G A35G — higher, 0.86
- A35G A45C — higher, 1.17
- A35G A45U — higher, 1.13
- A35G A45G — higher, 1.26
- A35G C68A — higher, 1.19
- G33C U76C — higher, 0.12
- C34A A45C — higher, 0.19
- C34A A45G — higher, 0.37
- A35G U43A — higher, 1.28
- A35G U43G — higher, 0.36
- A35G U43C — higher, 1.22
- A35G C39U — higher, 1.21
- A35G C39A — higher, 0.95
- A35G C39G — higher, 0.59
- A35C U41G — higher, 0.2
- A35C U41A — higher, 0.47
- A35C U41C — higher, 0.72
- G33U U41A — higher, 0.18
- G33U U41C — higher, 0.25
- A35G A77C — higher, 1.27
- A35G A77U — higher, 1.28
- A35G A77G — higher, 1.39
- G33U A56G — higher, 0.29
- G33U A56U — higher, 0.42
- A35C U66A — higher, 0.21
- A35C U66C — higher, 0.5
- G33A U72C — higher, 0.26
- G33A U72G — higher, 0.24
- G33U A64G — higher, 0.12
- C34A A56U — higher, 0.43
- C34A A56G — higher, 0.22
- A35C G61A — higher, 0.41
- A35G C50U — higher, 1.35
- A35G C50A — higher, 1.1
- G33C A56U — higher, 0.14
- G33C A56G — higher, 0.12
- G33C G36C — higher, 0.15
- A35C C39A — higher, 0.31
- C34A G46U — higher, 0.15
- G33C A64G — higher, 0.18
- C34U U80G — higher, 0.27
- C34U U80C — higher, 0.58
- C34U U80A — higher, 0.51
- G33A U78A — lower, 0.04
- G33A U78C — higher, 0.2
- G33A U76C — higher, 0.19
- G33U U58C — higher, 0.13
- C34A C44U — lower, 0.08
- G33A U74C — higher, 0.57
- G33A U74A — higher, 0.33
- A35G G53U — higher, 1.27
- A35G G53A — higher, 1.33
- A35G C59U — higher, 1.2
- G33C U78C — lower, 0.09
- G33C U78A — lower, 0.08
- A35C G55U — higher, 0.81
- A35C A77U — higher, 1.07
- A35G G73A — higher, 1.46
- A35C A45C — higher, 0.31
- A35C A45U — higher, 0.24
- C34G U58C — higher, 0.15
- C34G U58A — the same, 0.11
- G33U U60C — the same, 0.11
- G33U U60A — higher, 0.48
- A35C U49C — higher, 0.4
- C34U C44A — higher, 0.38
- A35C C81U — higher, 0.93
- G33C U48C — higher, 0.44
- G33C U48A — higher, 0.15
- C34U U72C — higher, 0.63
- C34U U72G — higher, 0.33
- C34U U72A — higher, 0.26

From the RNAGym collection of RNA variant scans (doi:10.1093/nar/gkz1192)
